Assays:
[1] = target: ZIKV CC_FLE sE (G5C/G102C), disulfide-linked dimer (Zika virus (Brazilian Zika SPH2015 strain)); experiment: cryo-EM structure
[2] = target: ZIKV CC_FLE sE (G5C/G102C), disulfide-linked dimer (Zika virus (Brazilian strain SPH2015)); experiment: SDS-PAGE with and without the reducing reagent DTT
[3] = target: ZIKV CC_FLE sE (G5C/G102C), disulfide-linked dimer (Zika virus (Brazilian strain SPH2015)); experiment: SEC
[4] = target: ZIKV CC_FLE sE (G5C/G102C), disulfide-linked dimer (Zika virus (Brazilian Zika SPH2015 strain)); experiment: SEC; purified sE proteins on a Superose 6 column
[5] = target: ZIKV CC_Core sE (A264C), disulfide-linked dimer (Zika virus (Brazilian Zika SPH2015 strain)); experiment: cryo-EM structure
[6] = target: ZIKV CC_Core sE (A264C), disulfide-linked dimer (Zika virus (Brazilian strain SPH2015)); experiment: SDS-PAGE with and without the reducing reagent DTT
[7] = target: ZIKV CC_Core sE (A264C), disulfide-linked dimer (Zika virus (Brazilian strain SPH2015)); experiment: SEC
[8] = target: ZIKV CC_Core sE (A264C), disulfide-linked dimer (Zika virus (Brazilian Zika SPH2015 strain)); experiment: SEC; purified sE proteins on a Superose 6 column
[9] = target: WNV CC_FLE sE (G5C/G102C), dimer (West Nile virus); experiment: cryo-EM structure
[10] = target: WNV CC_FLE sE (G5C/G102C), dimer (West Nile virus); experiment: SEC; purified sE proteins on a Superose 6 column
[11] = target: JEV CC_FLE sE (G5C/G102C), disulfide-linked dimer (Japanese encephalitis virus (SA-14-14-2 strain)); experiment: cryo-EM structure
[12] = target: JEV CC_FLE sE (G5C/G102C), disulfide-linked dimer (Japanese encephalitis virus (SA-14-14-2 strain)); experiment: SEC; purified sE proteins on a Superose 6 column

Measured: stoichiometry N

ZIKV CC_FLE sE (G5C/G102C), disulfide-linked dimer (domain or fragment)
2: [1] | [2] | [3] | [4]

ZIKV CC_Core sE (A264C), disulfide-linked dimer (domain or fragment)
2: [5] | [6] | [7] | [8]

WNV CC_FLE sE (G5C/G102C), dimer (domain or fragment)
2: [9] | [10]

JEV CC_FLE sE (G5C/G102C), disulfide-linked dimer (domain or fragment)
2: [11] | [12]

— article PMC12748774
